Source: patent US20140242080A1 (Hoffmann-La Roche, published 2014)

Key:
[1] = molecular target: T1, hu-MCSP(D3 domain)-avi-his (human, UniProt Q6UVK1 1582-2224); assay: ratio of ProteOn IgG KD, parent M4-3/ML2 against variant
T1 construct: Recombinant D3 domain with avi and his tags; also called human MCSP(D3 domain)-avi-his; Human MCSP D3
T1 sequence: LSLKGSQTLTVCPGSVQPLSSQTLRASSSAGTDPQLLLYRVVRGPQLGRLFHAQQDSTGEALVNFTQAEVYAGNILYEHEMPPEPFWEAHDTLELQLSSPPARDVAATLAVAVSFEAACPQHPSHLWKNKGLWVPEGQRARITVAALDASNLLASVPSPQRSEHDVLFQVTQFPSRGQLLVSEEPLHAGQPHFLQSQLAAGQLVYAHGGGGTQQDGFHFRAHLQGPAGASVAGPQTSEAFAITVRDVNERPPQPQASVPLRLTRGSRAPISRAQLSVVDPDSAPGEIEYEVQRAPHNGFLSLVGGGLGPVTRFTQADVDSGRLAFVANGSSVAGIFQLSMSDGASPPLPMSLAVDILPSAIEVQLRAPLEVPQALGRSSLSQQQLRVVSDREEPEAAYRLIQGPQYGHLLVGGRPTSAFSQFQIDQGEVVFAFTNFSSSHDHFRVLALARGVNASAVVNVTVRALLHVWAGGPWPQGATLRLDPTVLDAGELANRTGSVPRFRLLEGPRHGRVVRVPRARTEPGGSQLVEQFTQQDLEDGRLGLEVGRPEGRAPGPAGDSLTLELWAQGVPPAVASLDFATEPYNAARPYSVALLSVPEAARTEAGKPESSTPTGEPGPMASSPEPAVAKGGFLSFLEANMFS

cynomolgus MCSP D3 [2] = molecular target: T2, cynomolgus MCSP D3 (cynomolgus, UniProt Q6UVK1 1582-2224 (human entry), limits assumed); assay: as above
T2 construct: also called Cyno MCSP; cynomolgus homologue
T2 chain: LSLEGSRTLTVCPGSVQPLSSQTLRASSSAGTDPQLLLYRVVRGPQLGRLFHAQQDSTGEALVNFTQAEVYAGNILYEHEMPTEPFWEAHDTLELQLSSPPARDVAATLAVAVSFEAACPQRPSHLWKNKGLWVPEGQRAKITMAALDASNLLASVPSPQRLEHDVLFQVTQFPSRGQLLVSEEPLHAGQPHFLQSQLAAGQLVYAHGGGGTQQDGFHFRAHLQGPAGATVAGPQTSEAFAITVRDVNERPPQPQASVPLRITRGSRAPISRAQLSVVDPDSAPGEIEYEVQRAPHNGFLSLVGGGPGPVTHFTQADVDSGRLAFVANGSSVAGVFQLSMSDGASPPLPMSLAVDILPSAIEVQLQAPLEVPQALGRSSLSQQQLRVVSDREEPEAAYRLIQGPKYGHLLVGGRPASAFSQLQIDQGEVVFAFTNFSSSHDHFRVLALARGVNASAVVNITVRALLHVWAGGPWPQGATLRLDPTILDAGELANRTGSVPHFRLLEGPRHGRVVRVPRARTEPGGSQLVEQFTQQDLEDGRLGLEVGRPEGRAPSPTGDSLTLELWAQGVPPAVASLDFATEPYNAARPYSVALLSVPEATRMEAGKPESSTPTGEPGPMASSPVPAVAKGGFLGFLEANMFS

[3] = molecular target: T1, hu-MCSP(D3 domain)-avi-his; assay: SPR ProteOn XPR36, 25 C; IgG captured via anti-human F(ab')2, MCSP D3 as analyte
cynomolgus MCSP D3 [4] = molecular target: T2, cynomolgus MCSP D3; assay: as above

B1: M4-3(A7)/ML2(E10) IgG (antibody, V domains shown)
VH: QVQLQESGPGLVKPSQTLSLTCTVSGGSITDGYYWNWIRQHPGKGLEWIGYITFDGRNNYNPSLKSRVTISRDTSKNQFSLKLSSVTAADTAVYYCADFDYWGQGTLVTVSS
VL: DIQMTQSPSSLSASVGDRVTITCRASYGIRGYLNWYQQKPGKAPKLLIYYTSSLHSGVPSRFSGSGSGTDFTLTISSLQPEDFATYHCQQYSKLPWTFGQGTKVEIK
notes: Human IgG1
[1]
  Fold increase over parent: 6.7 fold
Cynomolgus MCSP D3 [2]
  Fold increase over parent: 2.9 fold
[3]
  Kd: 0.3 nM
Cynomolgus MCSP D3 [4]
  Kd: 0.7 nM

B2: M4-3(A7)/ML2(G3) IgG (antibody, V domains shown)
VH: QVQLQESGPGLVKPSQTLSLTCTVSGGSITDGYYWNWIRQHPGKGLEWIGYITFDGRNNYNPSLKSRVTISRDTSKNQFSLKLSSVTAADTAVYYCADFDYWGQGTLVTVSS
VL: DIQMTQSPSSLSASVGDRVTITCRASQGIRNYLNWYQQKPGKAPKLLIYYTSSLHSGVPSRFSGSGSGTDYTLTISSLQPEDFATYYCQQYSALPWTFGQGTKVEIK
notes: Human IgG1
[1]
  Fold increase over parent: 28.6 fold
Cynomolgus MCSP D3 [2]
  Fold increase over parent: 10 fold
[3]
  Kd: 0.07 nM
Cynomolgus MCSP D3 [4]
  Kd: 0.2 nM

B3: M4-3(B8)/ML2 IgG (antibody, V domains shown)
VH: QVQLQESGPGLVKPSQTLSLTCTVSGGSITSGYYWNWIRQHPGKGLEWIGYITFDGRNNYNPSLKSRVTISRDTSKNQFSLKLSSVTAADTAVYYCADFDYWGQGTLVTVSS
VL: DIQMTQSPSSLSASVGDRVTITCRASQGIRNYLNWYQQKPGKAPKLLIYYTSSLHSGVPSRFSGSGSGTDFTLTISSLQPEDFATYYCQQYSKLPWTFGQGTKVEIK
notes: Human IgG1
[1]
  Fold increase over parent: 2.2 fold
Cynomolgus MCSP D3 [2]
  Fold increase over parent: 2 fold
[3]
  Kd: 0.9 nM
Cynomolgus MCSP D3 [4]
  Kd: 1 nM

B4: M4-3(A7)/ML2 IgG (antibody, V domains shown)
VH: QVQLQESGPGLVKPSQTLSLTCTVSGGSITDGYYWNWIRQHPGKGLEWIGYITFDGRNNYNPSLKSRVTISRDTSKNQFSLKLSSVTAADTAVYYCADFDYWGQGTLVTVSS
VL: DIQMTQSPSSLSASVGDRVTITCRASQGIRNYLNWYQQKPGKAPKLLIYYTSSLHSGVPSRFSGSGSGTDFTLTISSLQPEDFATYYCQQYSKLPWTFGQGTKVEIK
notes: Human IgG1
[1]
  Fold increase over parent: 2.5 fold
Cynomolgus MCSP D3 [2]
  Fold increase over parent: 2 fold
[3]
  Kd: 0.8 nM
Cynomolgus MCSP D3 [4]
  Kd: 1 nM

B5: M4-3(B7)/ML2 IgG (antibody, V domains shown)
VH: QVQLQESGPGLVKPSQTLSLTCTVSGGSITSGYYWNWIRQHPGKGLEWIGYITFDGINNYNPSLKSRVTISRDTSKNQFSLKLSSVTAADTAVYYCADFDYWGQGTLVTVSS
VL: DIQMTQSPSSLSASVGDRVTITCRASQGIRNYLNWYQQKPGKAPKLLIYYTSSLHSGVPSRFSGSGSGTDFTLTISSLQPEDFATYYCQQYSKLPWTFGQGTKVEIK
notes: Human IgG1
[1]
  Fold increase over parent: 4 fold
Cynomolgus MCSP D3 [2]
  Fold increase over parent: 2.9 fold
[3]
  Kd: 0.5 nM
Cynomolgus MCSP D3 [4]
  Kd: 0.7 nM

B6: M4-3(D6)/ML2 IgG (antibody, V domains shown)
VH: QVQLQESGPGLVKPSQTLSLTCTVSGGSITSGYYWNWIRQHPGKGLEWIGYITFDGKNNYNPSLKSRVTISRDTSKNQFSLKLSSVTAADTAVYYCADFDYWGQGTLVTVSS
VL: DIQMTQSPSSLSASVGDRVTITCRASQGIRNYLNWYQQKPGKAPKLLIYYTSSLHSGVPSRFSGSGSGTDFTLTISSLQPEDFATYYCQQYSKLPWTFGQGTKVEIK
notes: Human IgG1
[1]
  Fold increase over parent: 5 fold
Cynomolgus MCSP D3 [2]
  Fold increase over parent: 2 fold
[3]
  Kd: 0.4 nM
Cynomolgus MCSP D3 [4]
  Kd: 1 nM

B7: M4-3/ML2(C5) IgG (antibody, V domains shown)
VH: QVQLQESGPGLVKPSQTLSLTCTVSGGSITSGYYWNWIRQHPGKGLEWIGYITYDGSNNYNPSLKSRVTISRDTSKNQFSLKLSSVTAADTAVYYCADFDYWGQGTLVTVSS
VL: DIQMTQSPSSLSASVGDRVTITCRASRGIREYLNWYQQKPGKAPKLLIYYTGSLHSGVPSRFSGSGSGTDFTLTISSLQPEDFATYYCQQYSELPWTFGQGTKVEIK
notes: Human IgG1
[1]
  Fold increase over parent: 5 fold
Cynomolgus MCSP D3 [2]
  Fold increase over parent: 2 fold
[3]
  Kd: 0.4 nM
Cynomolgus MCSP D3 [4]
  Kd: 1 nM

B8: M4-3/ML2(C5/G3) IgG (antibody, V domains shown)
VH: QVQLQESGPGLVKPSQTLSLTCTVSGGSITSGYYWNWIRQHPGKGLEWIGYITYDGSNNYNPSLKSRVTISRDTSKNQFSLKLSSVTAADTAVYYCADFDYWGQGTLVTVSS
VL: DIQMTQSPSSLSASVGDRVTITCRASRGIREYLNWYQQKPGKAPKLLIYYTGSLHSGVPSRFSGSGSGTDFTLTISSLQPEDFATYYCQQYSALPWTFGQGTKVEIK
notes: Human IgG1
[1]
  Fold increase over parent: 2.9 fold
Cynomolgus MCSP D3 [2]
  Fold increase over parent: 2 fold
[3]
  Kd: 0.7 nM
Cynomolgus MCSP D3 [4]
  Kd: 1 nM

B9: M4-3/ML2(E10) IgG (antibody, V domains shown)
VH: QVQLQESGPGLVKPSQTLSLTCTVSGGSITSGYYWNWIRQHPGKGLEWIGYITYDGSNNYNPSLKSRVTISRDTSKNQFSLKLSSVTAADTAVYYCADFDYWGQGTLVTVSS
VL: DIQMTQSPSSLSASVGDRVTITCRASYGIRGYLNWYQQKPGKAPKLLIYYTSSLHSGVPSRFSGSGSGTDFTLTISSLQPEDFATYHCQQYSKLPWTFGQGTKVEIK
notes: Human IgG1
[1]
  Fold increase over parent: 2 fold
Cynomolgus MCSP D3 [2]
  Fold increase over parent: 1 fold
[3]
  Kd: 1 nM
Cynomolgus MCSP D3 [4]
  Kd: 2 nM

B10: M4-3/ML2(E10/G3) IgG (antibody, V domains shown)
VH: QVQLQESGPGLVKPSQTLSLTCTVSGGSITSGYYWNWIRQHPGKGLEWIGYITYDGSNNYNPSLKSRVTISRDTSKNQFSLKLSSVTAADTAVYYCADFDYWGQGTLVTVSS
VL: DIQMTQSPSSLSASVGDRVTITCRASYGIRGYLNWYQQKPGKAPKLLIYYTSSLHSGVPSRFSGSGSGTDFTLTISSLQPEDFATYHCQQYSALPWTFGQGTKVEIK
notes: Human IgG1
[1]
  Fold increase over parent: 5 fold
Cynomolgus MCSP D3 [2]
  Fold increase over parent: 2.2 fold
[3]
  Kd: 0.4 nM
Cynomolgus MCSP D3 [4]
  Kd: 0.9 nM

B11: M4-3/ML2(G3) IgG (antibody, V domains shown)
VH: QVQLQESGPGLVKPSQTLSLTCTVSGGSITSGYYWNWIRQHPGKGLEWIGYITYDGSNNYNPSLKSRVTISRDTSKNQFSLKLSSVTAADTAVYYCADFDYWGQGTLVTVSS
VL: DIQMTQSPSSLSASVGDRVTITCRASQGIRNYLNWYQQKPGKAPKLLIYYTSSLHSGVPSRFSGSGSGTDYTLTISSLQPEDFATYYCQQYSALPWTFGQGTKVEIK
notes: Human IgG1
[1]
  Fold increase over parent: 6.7 fold
Cynomolgus MCSP D3 [2]
  Fold increase over parent: 3.3 fold
[3]
  Kd: 0.3 nM
Cynomolgus MCSP D3 [4]
  Kd: 0.6 nM

B12: M4-(A7)/ML2(C5) IgG (antibody, V domains shown)
VH: QVQLQESGPGLVKPSQTLSLTCTVSGGSITDGYYWNWIRQHPGKGLEWIGYITFDGRNNYNPSLKSRVTISRDTSKNQFSLKLSSVTAADTAVYYCADFDYWGQGTLVTVSS
VL: DIQMTQSPSSLSASVGDRVTITCRASRGIREYLNWYQQKPGKAPKLLIYYTGSLHSGVPSRFSGSGSGTDFTLTISSLQPEDFATYYCQQYSELPWTFGQGTKVEIK
notes: Human IgG1; also called M4-3(A7)/ML2(C5)
[1]
  Fold increase over parent: 28.6 fold
Cynomolgus MCSP D3 [2]
  Fold increase over parent: 10 fold
[3]
  Kd: 0.7 nM
Cynomolgus MCSP D3 [4]
  Kd: 0.2 nM

B13: M4-3(C1)/ML2 IgG (antibody, V domains shown)
VH: QVQLQESGPGLVKPSQTLSLTCTVSGGSITSGYYWNWIRQHPGKGLEWIGYITFDGSNNYNPSLKSRVTISRDTSKNQFSLKLSSVTAADTAVYYCADFDYWGQGTLVTVSS
VL: DIQMTQSPSSLSASVGDRVTITCRASQGIRNYLNWYQQKPGKAPKLLIYYTSSLHSGVPSRFSGSGSGTDFTLTISSLQPEDFATYYCQQYSKLPWTFGQGTKVEIKR
notes: Human IgG1; copies: 2 + 2
[1]
  Fold increase over parent: 2.2 fold
Cynomolgus MCSP D3 [2]
  Fold increase over parent: 2.5 fold
[3]
  Kd: 0.9 nM
Cynomolgus MCSP D3 [4]
  Kd: 0.8 nM
